Laboratory results as given in PMC5291697.

Biological target: Ncore-MoRE (MeV N with MoRE relocated from Ntail to Ncore position 138) (measles virus (MeV-Edm strain))
Experiment: co-IP

B1: standard measles virus (MeV) phosphoprotein P, full length (natural protein)
chain: MATLLRSLALFKRNKDKPPITSGSGGAIRGIKHIIIVPIPGDSSITTRSRLLDRLVRLIGNPDVSGPKLTGALIGILSLFVESPGQLIQRITDDPDVSIRLLEVVQSDQSQSGLTFASRGTNMEDEADQYFSHDDPISSDQSRFGWFENKEISDIEVQDPEGFNMILGTILAQIWVLLAKAVTAPDTAADSELRRWIKYTQQRRVVGEFRLERKWLDVVRNRIAEDLSLRRFMVALILDIKRTPGNKPRIAEMICDIDTYIVEAGLASFILTIKFGIETMYPALGLHEFAGELSTLESLMNLYQQMGETAPYMVILENSIQNKFSAGSYPLLWSYAMGVGVELENSMGGLNFGRSYFDPAYFRLGQEMVRRSAGKVSSTLASELGITAEDARLVSEIAMHTTEDKISRAVGPRQAQVSFLHGDQSENELPRLGGKEDRRVKQSRGEARESYRETGPSRASDARAAHLPTGTPLDIDTASESSQDPQDSRRSADALLRLQAMAGISEEQGSDTDTPIVYNDRNLLD
  coprecipitation efficiency relative to standard N (% of standard N): 75
